Laboratory results as given in paper PMC12289019.

Legend:
[1] = biological target: adeno-associated virus 2 (AAV2) capsid (adeno-associated virus 2)
[2] = biological target: adeno-associated virus 2 (AAV2) capsid (adeno-associated virus 2); remark: listed apart in the source
[3] = biological target: adeno-associated virus 2 (AAV2) capsid (adeno-associated virus 2); experiment: SPR; AAV2 amine-coupled to a CM5 chip (9451 RU); HD5 or HNP1 as analyte; BIAcore X100, 25°C, PBS running buffer; 1:1 binding model for KD; stoichiometry by GraphPad Prism; 2 replicates; paper speaks of avidity
[4] = biological target: adeno-associated virus 6 (AAV6) capsid (adeno-associated virus 6)

## human neutrophil peptide 1 (HNP1)
[1]
  IC50 of inhibition of AAV2 infection of HeLa cells (GFP), defensin incubated with virus pre-attachment: 9.7 µM
[2]
  IC50 of inhibition of AAV2 infection of HeLa cells (GFP), defensin added post-attachment: 6 µM
[3]
  Kd: 0.32 µM
  stoichiometry N (molecules per capsid): 227

## human defensin 5 (HD5) (peptide)
[2]
  IC50 of inhibition of AAV2 binding to HeLa cells in the cold (qPCR of bound genomes): 9.2 µM
  IC50 of inhibition of AAV2 infection of HeLa cells (GFP), defensin added post-attachment: 4.4 µM
[4]
  IC50 of inhibition of AAV6 binding to HeLa cells in the cold (qPCR of bound genomes); inhibition incomplete: 41.6 µM
[3]
  Kd: 0.57 µM
  stoichiometry N (molecules per capsid): 385
